# From the supplement of paper PMC10724198
# ± gives the standard deviation of the averaged measurements.
# Tested on: Saccharomyces cerevisiae
# Experiment: protein stability index of tFT-peptide fusion (C-terminal peptide) (PSI (0-1 scale)); higher = more stable (slower turnover)
# Conditions: genetic background: wild type; temperature: 30 C
# Description: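 MPS profiling in S. cerevisiae of the yeast C-terminome library: the last 12 aa of each annotated ORF are fused to the C-terminus of a sfGFP-mCherry timer, after a GGGS linker. Cells are FACS-sorted into 8 mCherry/sfGFP bins and deep-sequenced. PSI runs from 0 (unstable) to 1 (stable); wild type and das1Δ backgrounds, two technical replicates each.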
row,Sequence,protein stability index
1,NRRSDKNLPDAT [STE12 C-terminal 12 aa],0.694 ± 0.0077
2,NSEKDQVPILSS [SSK22 C-terminal 12 aa],0.729 ± 0.041
3,NSTSSKDKKKKN [SES1 C-terminal 12 aa],0.7314 ± 0.0025
4,NTAKATYDLYTN [GPI8 C-terminal 12 aa],0.6703 ± 0.0046
5,NTQVDDETKKNN [YDC1 C-terminal 12 aa],0.7367 ± 0.0051
6,NVDVVTPNSIFI [TMA17 C-terminal 12 aa],0.6982 ± 0.0046
7,NVKVKALQRMTW [TIS11 C-terminal 12 aa],0.729 ± 0.039
8,NVPSFGQDELDQ [MPS3 C-terminal 12 aa],0.688 ± 0.011
9,NVTGSANNGTHI [SVS1 C-terminal 12 aa],0.671 ± 0.016
10,NYDLQKLYDKID [QDR3 C-terminal 12 aa],0.6544 ± 0.0034
11,NYLKKHSEKQDA [ATP19 C-terminal 12 aa],0.723 ± 0.066
12,PEALIKSMTSKL [SPS19 C-terminal 12 aa],0.725 ± 0.18
13,PEKGSGFNTNLG [DCS2 C-terminal 12 aa],0.738 ± 0.025
14,PKRGGLFGFGRL [JIP4 C-terminal 12 aa],0.762 ± 0.023
15,PLGEKFLNISNS [TEN1 C-terminal 12 aa],0.694 ± 0.013
16,PLMTVLGLEKKK [DPC13 C-terminal 12 aa],0.675 ± 0.064
17,PLTRFHSCPITA [ECM13 C-terminal 12 aa],0.301 ± 0.013
18,PPASESNKGINE [YDR008C C-terminal 12 aa],0.661 ± 0.032
19,PPKSIFDTDDDD [RCN1 C-terminal 12 aa],0.714 ± 0.054
20,PSPGFHMYGCHT [YLR156W C-terminal 12 aa],0.695 ± 0.0084
21,PSYAKVQEFATP [NEO1 C-terminal 12 aa],0.684 ± 0.0059

row,Sequence,protein stability index
1,PVTPAVSKRYQP [YER084W C-terminal 12 aa],0.6939 ± 0.003
2,QAIEDKLNKMSR [BIL1 C-terminal 12 aa],0.683 ± 0.018
3,QALFVLYYLYSI [YDR406W-A C-terminal 12 aa],0.445 ± 0.013
4,QDKQVKSWWRFW [CBP4 C-terminal 12 aa],0.7144 ± 0.0053
5,QEANDDLMIDVN [ENP1 C-terminal 12 aa],0.699 ± 0.015
6,QGQKFIHDNNTN [YMR245W C-terminal 12 aa],0.646 ± 0.018
7,QHIKTHKKHGDI [MSN2 C-terminal 12 aa],0.667 ± 0.014
8,QIDKLLTVLDSL [RTP1 C-terminal 12 aa],0.691 ± 0.038
9,QIIYYIARSKGL [MEC3 C-terminal 12 aa],0.668 ± 0.035
10,QIRSVFSGVYGG [ASP3-1 C-terminal 12 aa],0.689 ± 0.049
11,QKAKLNKLDSKK [NOP7 C-terminal 12 aa],0.704 ± 0.068
12,QKEPNDQIDVEE [GPN3 C-terminal 12 aa],0.698 ± 0.042
13,QKRIQRKKMNEM [AIM23 C-terminal 12 aa],0.663 ± 0.014
14,QKYLEELQKKKF [YET2 C-terminal 12 aa],0.7424 ± 0.0019
15,QLIDIAKKMGIL [BIR1 C-terminal 12 aa],0.276 ± 0.0083
16,QLQMILFGKKFK [PET9 C-terminal 12 aa],0.701 ± 0.021
17,QNDRRSVLKKYI [YER010C C-terminal 12 aa],0.666 ± 0.021
18,QNQDEPITENFE [TUB2 C-terminal 12 aa],0.718 ± 0.025
19,QPKIEINVDQYD [SPC1 C-terminal 12 aa],0.6919 ± 0.0036
20,QQPNQNQNQNSK [FIP1 C-terminal 12 aa],0.676 ± 0.019
21,QQSPHPVVDNDK [KIP2 C-terminal 12 aa],0.682 ± 0.035

row,Sequence,protein stability index
1,QRIHQTLEVPNL [FAR1 C-terminal 12 aa],0.692 ± 0.06
2,QRTVKQEGNKGG [GZF3 C-terminal 12 aa],0.69986 ± 0.00047
3,QSILACCQESNK [LCB1 C-terminal 12 aa],0.645 ± 0.0071
4,QSPLMDMLAPQL [TOM6 C-terminal 12 aa],0.7117 ± 0.00029
5,QSQYPDVGIPAI [YAR023C C-terminal 12 aa],0.669 ± 0.011
6,QSSHFGQVDEII [DUR3 C-terminal 12 aa],0.726 ± 0.04
7,QSTAVFFTNKTD [YER076W-A C-terminal 12 aa],0.684 ± 0.046
8,QTDGMGLVSWWE [RPC25 C-terminal 12 aa],0.749 ± 0.041
9,QTILFAAFLPPA [GPI18 C-terminal 12 aa],0.682 ± 0.008
10,QTTFLATAIVLC [YOR331C C-terminal 12 aa],0.4167 ± 0.0014
11,QTTRMLNDLIVS [MGA2 C-terminal 12 aa],0.667 ± 0.017
12,QVHPSRQELSFT [DON1 C-terminal 12 aa],0.701 ± 0.069
13,QVTWHKHSPRIQ [YKL202W C-terminal 12 aa],0.7036 ± 0.0056
14,RCSETKQQVMNS [BTT1 C-terminal 12 aa],0.691 ± 0.0026
15,REGVVPPVGITN [EGO4 C-terminal 12 aa],0.66 ± 0.024
16,RELREHTKLLHS [YIL082W-A C-terminal 12 aa],0.597 ± 0.021
17,REVDDRFKVIYV [VPS35 C-terminal 12 aa],0.695 ± 0.029
18,RFAKGGKFVEVD [ATP18 C-terminal 12 aa],0.6675 ± 0.0047
19,RFYFLSIFKYII [YBR191W-A C-terminal 12 aa],0.331 ± 0.02
20,RGRIAAQKRISA [RPL17B C-terminal 12 aa],0.663 ± 0.016
21,RHAASLLGMSTK [VPS17 C-terminal 12 aa],0.762 ± 0.03

row,Sequence,protein stability index
1,RHCARVKRSSRL [LYS1 C-terminal 12 aa],0.823 ± 0.046
2,RKEVIDALVSLS [AIM46 C-terminal 12 aa],0.6881 ± 0.0046
3,RKFFSMRSLNSR [CHL1 C-terminal 12 aa],0.6589 ± 0.0015
4,RKLFLVVKDNIL [JIP3 C-terminal 12 aa],0.734 ± 0.015
5,RKNNKKSISYYG [YOR203W C-terminal 12 aa],0.731 ± 0.0063
6,RKRKQSKSGLLL [NOP8 C-terminal 12 aa],0.699 ± 0.01
7,RKRLRTLDNWYR [RNH201 C-terminal 12 aa],0.7169 ± 0.0049
8,RLDKATKALEGF [NBA1 C-terminal 12 aa],0.702 ± 0.033
9,RLGNLENIKIPK [AIM4 C-terminal 12 aa],0.696 ± 0.038
10,RLLSLWEVFQMA [RPC82 C-terminal 12 aa],0.6182 ± 0.0037
11,RLNNWLFGWNDL [NUP53 C-terminal 12 aa],0.707 ± 0.0094
12,RLQAMLNSSSSI [CEF1 C-terminal 12 aa],0.669 ± 0.008
13,RLRAKSPYAWDD [YHK8 C-terminal 12 aa],0.721 ± 0.053
14,RLTSRSGSANRA [SAC7 C-terminal 12 aa],0.65006 ± 5.7e-05
15,RLVRNVELSKEK [MTD1 C-terminal 12 aa],0.718 ± 0.062
16,RLWSRKEFRLGT [SNU71 C-terminal 12 aa],0.7 ± 0.029
17,RMVDKVEGSFSR [YDR109C C-terminal 12 aa],0.701 ± 0.028
18,RPVLSEEQRKNC [YDR344C C-terminal 12 aa],0.6794 ± 0.0048
19,RQTKAFISKFMT [DBR1 C-terminal 12 aa],0.682 ± 0.05
